# Laboratory results as given in publication PMC10572626, “NMR-Based Characterization of the Interaction between Yeast Oxa1-CTD and Ribosomes” (International Journal of Molecular Sciences, 2023).
# B1: C-terminal domain of yeast S. cerevisiae mitochondrial oxidase assembly protein 1 (Oxa1-CTD, W320-K402) (domain or fragment, UniProt P39952 320-402, looked up)
# chain: WVRSKLKITEVAKPRTPIAGASPTENMGIFQSLKHNIQKARDQAERRQLMQDNEKKLQESFKEKRQNSKIKIVHKSNFINNKK
# modifications: red fluorescent dye (Monolith NT protein labeling kit) in the MST assay; 15N-labelled in the NMR titration
# notes: Oxa1, yeast S. cerevisiae, C-terminal domain, residues W320 to K402 (pI = 10.5); cloned into pET-14b with an N-terminal 6x His-tag and a thrombin cleavage site; also called C-terminus of Oxa1; pET14b-Oxa1-CTD (W320-K402)
# What was measured:
# [1] = biological target: C-terminal domain of yeast S. cerevisiae mitochondrial oxidase assembly protein 1 (Oxa1-CTD, W320-K402) (S. cerevisiae) (UniProt P39952); experiment: MST; Oxa1-CTD (20 µM, labelled with red fluorescent dye) kept constant; E. coli 70S or BSA titrated 1.21-20,000 nM; 20 mM HEPES pH 7.2, 75 mM NaCl, 20 mM MgCl2; three repeats
# [2] = biological target: the molecule itself; experiment: SEC; Superdex 75 increase 10/300 GL in NMR buffer (20 mM HEPES pH 7.2, 75 mM NaCl, 20 mM MgCl2, 5 mM β-mercaptoethanol); oligomeric state inferred from elution volumes against standards of the column's manual
Molecule,Kd [1] [nM],stoichiometry N [2]
E. coli 70S ribosome (complex),450,–
B1,–,2
